Assays:
[1] = target: ubiquitinated peptide 20 (full Ub linked through a native isopeptide bond to the H2B 8-mer AVTKYTSK) (human)
[2] = target: ubiquitinated peptide 24 (full Ub linked through a native isopeptide bond to a 31-mer from the C-terminus of H2B) (human)
[3] = target: doubly labelled ubiquitinated peptide 32: Dnp-labelled Ub linked through a native isopeptide bond to MCA-(Nle)FKTEG (FRET substrate) (human)

percent hydrolysis, HPLC (% hydrolysis within 30 minutes) [1]: 75
percent hydrolysis, HPLC (% hydrolysis within 30 minutes) [2]: 25
increase of fluorescence emission upon cleavage (FRET assay) (fold increase in fluorescence) [3]: 6
Substance: recombinant human UCH-L3 (ubiquitin C-terminal hydrolase) (from UniProt P15374) (enzyme)

Reference: patent publication US20130143251A1
